As a reminder, the Kd is the free concentration of one partner at which half of the binding sites on the other are occupied at equilibrium, for simple one-to-one binding. A lower Kd goes with a tighter complex.

The chains are these.
T1: AtCyp59 full-length (Arabidopsis thaliana, UniProt Q6Q151 1-506)
T1 sequence: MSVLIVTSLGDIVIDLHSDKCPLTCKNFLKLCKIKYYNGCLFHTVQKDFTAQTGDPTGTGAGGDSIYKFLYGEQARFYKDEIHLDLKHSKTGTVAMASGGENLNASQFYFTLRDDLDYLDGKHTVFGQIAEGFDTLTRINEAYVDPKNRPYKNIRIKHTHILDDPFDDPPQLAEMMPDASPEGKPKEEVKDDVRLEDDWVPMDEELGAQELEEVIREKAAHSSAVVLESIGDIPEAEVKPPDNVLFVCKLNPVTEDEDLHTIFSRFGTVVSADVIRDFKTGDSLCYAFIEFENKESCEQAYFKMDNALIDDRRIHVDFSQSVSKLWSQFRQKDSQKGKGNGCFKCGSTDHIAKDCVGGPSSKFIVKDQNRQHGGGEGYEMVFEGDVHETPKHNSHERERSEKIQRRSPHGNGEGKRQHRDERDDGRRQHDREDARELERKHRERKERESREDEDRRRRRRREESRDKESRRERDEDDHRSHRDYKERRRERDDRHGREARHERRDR

The data set concerns the target T1, AtCyp59 full-length. As to the kind of experiment: EMSA. On the technique in general: A gel shift assay detects complexes by their altered migration in electrophoresis.
For GCGGCCG (ssRNA), the Kd is 120 ± 25 nM.

GUGGCCA (ssRNA) yielded a Kd of 120 ± 25 nM.

The molecule GCGGCCA (ssRNA) registered a Kd of 120 ± 25 nM.

GUCGCCG (ssRNA) gave a Kd of 120 ± 25 nM.

As to GAUGCCA (ssRNA), the Kd came out at 120 ± 25 nM.

As for GGAGCCA (ssRNA), the affinity, expressed as Kd, was 120 ± 25 nM.

As to GCCGCCA (ssRNA), binding was characterised by a dissociation constant (Kd) of 120 ± 25 nM.

GUUGCCG (ssRNA) showed a Kd of 120 ± 25 nM.

GUGGCCG (ssRNA) returned a Kd of 120 ± 25 nM.

GCCGCCG (ssRNA) showed a Kd of 120 ± 25 nM.

In turn, GGUGCCG (ssRNA) returned an equilibrium dissociation constant (Kd) of 120 ± 25 nM.

In turn, GACGCCA (ssRNA) came in with a Kd of 120 ± 25 nM.

The molecule GAUGCCG (ssRNA) came in with a Kd of 120 ± 25 nM.

Molecule GUCGCCA (ssRNA) displayed a Kd of 120 ± 25 nM.

Consider GUAGCCG (ssRNA), for which the dissociation constant Kd was 120 ± 25 nM.

On to GUAGCCA (ssRNA), for which the Kd stood at 120 ± 25 nM.

The molecule GCUGCCG (ssRNA) displayed a Kd of 120 ± 25 nM.

The record behind these values is paper PMC3561992.
